Data reported in article PMC11667226 (Theranostics, 2025).
Where two headings read alike, the source gives them in different places. Non-standard residues stand in square brackets, D forms with d. Residues, ends and D or L forms follow the SMILES beside them. *: point of attachment. X1 = CC1(C)C(=CC=CC=CC=CC2=[N+](CCCCCC(=O)*)c3ccc4ccccc4c3C2(C)C)N(CCCCS(=O)(=O)[O-])c2ccc3ccccc3c21; Cha = N[C@@H](CC1CCCCC1)C(=O)O

Conditions: for TEAE Mild (Grade 1): No. events / TEAE Mild (Grade 1): No. patients (%) / TEAE Moderate (Grade 2): No. events / TEAE Moderate (Grade 2): No. patients (%) / TEAE Severe (Grade 3): No. events / TEAE Severe (Grade 3): No. patients (%): CTCAE v5.0
Method: ECGs were taken at baseline, 1 hr ± 15 min, and 44 hrs ± 6 h post-injection. Blood samples (including lever and kidney parameters) were sampled at baseline, 12 hrs ± 4 hrs, and 44 hrs ± 6 hrs post-injection. All laboratory analyses were performed by the Department of Biochemistry at Rigshospitalet. AE assessments were graded according to the National Cancer Institute “Common Terminology Criteria for Adverse Events (CTCAE)” version 5.0. There was no data monitoring committee in this trial.

CC(C)C[C@H](NC(=O)[C@H](Cc1ccc(O)cc1)NC(=O)[C@@H](CCCNC(=N)N)NC(=O)[C@@H](CO)NC(=O)[C@H](Cc1ccccc1)NC(=O)[C@H](CC1CCCCC1)NC(=O)[C@H](CC(=O)O)NC(=O)[C@H](CCC(=O)O)NC(=O)[C@H](CCC(=O)O)NC(=O)CCCCC[N+]1=C(C=CC=CC=CC=C2N(CCCCS(=O)(=O)[O-])c3ccc4ccccc4c3C2(C)C)C(C)(C)c2c1ccc1ccccc21)C(=O)N[C@@H](Cc1c[nH]c2ccccc12)C(=O)N[C@@H](CO)C(=O)O [FG001, ICG-Glu-Glu-AE105] (X1-EED[Cha]F[dS][dR]YLWS-OH; N-terminus and C-terminus assumed)
6: TEAE SOC Metabolism and nutrition disorders: No. events (FG001 16 mg i.v., N=8)
1 (20.0%): TEAE AST increased: No. subjects (%) (FG001 4 mg i.v., N=5) | TEAE Blood bilirubin increased: No. subjects (%) (FG001 4 mg i.v., N=5) | TEAE Hyponatraemia: No. subjects (%) (FG001 4 mg i.v., N=5)
8 (100%): TEAE: No. patients (%) (FG001 16 mg i.v., n = 8)
4: TEAE Hypalbuminaemia: No. events (FG001 4 mg i.v., N=5) | TEAE SOC Investigations: No. events (FG001 16 mg i.v., N=8) | TEAE Moderate (Grade 2): No. events (FG001 16 mg i.v., n = 8)
5: TEAE SOC Metabolism and nutrition disorders: No. events (FG001 4 mg i.v., N=5) | TEAE Mild (Grade 1): No. events (FG001 4 mg i.v., n = 5) | TEAE Hypalbuminaemia: No. events (FG001 16 mg i.v., N=8)
3 (37.5%): TEAE SOC Investigations: No. subjects (%) (FG001 16 mg i.v., N=8)
5 (62.5%): TEAE Hypalbuminaemia: No. subjects (%) (FG001 16 mg i.v., N=8) | TEAE SOC Metabolism and nutrition disorders: No. subjects (%) (FG001 16 mg i.v., N=8)
11: TEAE Mild (Grade 1): No. events (FG001 16 mg i.v., n = 8)
2 (25.0%): TEAE Blood bilirubin increased: No. subjects (%) (FG001 16 mg i.v., N=8) | TEAE SOC Vascular disorders: No. subjects (%) (FG001 16 mg i.v., N=8)
0 (0%): FG001 related TEAEs: No. patients (%) (FG001 4 mg i.v., n = 5) | SAEs: No. patients (%) (FG001 4 mg i.v., n = 5) | FG001 related TEAEs: No. patients (%) (FG001 16 mg i.v., n = 8) | SAEs: No. patients (%) (FG001 16 mg i.v., n = 8)
1: TEAE AST increased: No. events (FG001 4 mg i.v., N=5) | TEAE Blood bilirubin increased: No. events (FG001 4 mg i.v., N=5) | TEAE Hyponatraemia: No. events (FG001 4 mg i.v., N=5) | TEAE AST increased: No. events (FG001 16 mg i.v., N=8) | TEAE Blood creatinine increased: No. events (FG001 16 mg i.v., N=8) | TEAE Dysgeusia: No. events (FG001 16 mg i.v., N=8) | TEAE Hyperglycaemia: No. events (FG001 16 mg i.v., N=8) | TEAE Hypertension: No. events (FG001 16 mg i.v., N=8) | TEAE Hypotension: No. events (FG001 16 mg i.v., N=8) | TEAE Hypothermia: No. events (FG001 16 mg i.v., N=8) | TEAE Pneumonia: No. events (FG001 16 mg i.v., N=8) | TEAE SOC General disorders and administration site conditions: No. events (FG001 16 mg i.v., N=8) | TEAE SOC Infections and infestations: No. events (FG001 16 mg i.v., N=8) | TEAE SOC Nervous system disorders: No. events (FG001 16 mg i.v., N=8) | TEAE ALT increased: No. events (FG001 36 mg i.v., N=4) | TEAE AST increased: No. events (FG001 36 mg i.v., N=4) | TEAE Blood ALP increased: No. events (FG001 36 mg i.v., N=4)
7: TEAE: No. events (FG001 4 mg i.v., n = 5)
0 (0.0%): TEAE ALT increased: No. subjects (%) (FG001 4 mg i.v., N=5) | TEAE Blood ALP increased: No. subjects (%) (FG001 4 mg i.v., N=5) | TEAE Blood creatinine increased: No. subjects (%) (FG001 4 mg i.v., N=5) | TEAE Dysgeusia: No. subjects (%) (FG001 4 mg i.v., N=5) | TEAE GGT increased: No. subjects (%) (FG001 4 mg i.v., N=5) | TEAE Hyperglycaemia: No. subjects (%) (FG001 4 mg i.v., N=5) | TEAE Hypertension: No. subjects (%) (FG001 4 mg i.v., N=5) | TEAE Hypotension: No. subjects (%) (FG001 4 mg i.v., N=5) | TEAE Hypothermia: No. subjects (%) (FG001 4 mg i.v., N=5) | TEAE Pneumonia: No. subjects (%) (FG001 4 mg i.v., N=5) | TEAE SOC General disorders and administration site conditions: No. subjects (%) (FG001 4 mg i.v., N=5) | TEAE SOC Infections and infestations: No. subjects (%) (FG001 4 mg i.v., N=5) | TEAE SOC Nervous system disorders: No. subjects (%) (FG001 4 mg i.v., N=5) | TEAE SOC Vascular disorders: No. subjects (%) (FG001 4 mg i.v., N=5) | TEAE Severe (Grade 3): No. patients (%) (FG001 4 mg i.v., n = 5) | TEAE ALT increased: No. subjects (%) (FG001 16 mg i.v., N=8) | TEAE Blood ALP increased: No. subjects (%) (FG001 16 mg i.v., N=8) | TEAE GGT increased: No. subjects (%) (FG001 16 mg i.v., N=8) | TEAE Hyponatraemia: No. subjects (%) (FG001 16 mg i.v., N=8) | TEAE Severe (Grade 3): No. patients (%) (FG001 16 mg i.v., n = 8)
4 (50.0%): TEAE Mild (Grade 1): No. patients (%) (FG001 16 mg i.v., n = 8) | TEAE Moderate (Grade 2): No. patients (%) (FG001 16 mg i.v., n = 8)
15: TEAE: No. events (FG001 16 mg i.v., n = 8)
4 (80%): TEAE: No. patients (%) (FG001 4 mg i.v., n = 5)
0: TEAE ALT increased: No. events (FG001 4 mg i.v., N=5) | TEAE Blood ALP increased: No. events (FG001 4 mg i.v., N=5) | TEAE Blood creatinine increased: No. events (FG001 4 mg i.v., N=5) | TEAE Dysgeusia: No. events (FG001 4 mg i.v., N=5) | TEAE GGT increased: No. events (FG001 4 mg i.v., N=5) | TEAE Hyperglycaemia: No. events (FG001 4 mg i.v., N=5) | TEAE Hypertension: No. events (FG001 4 mg i.v., N=5) | TEAE Hypotension: No. events (FG001 4 mg i.v., N=5) | TEAE Hypothermia: No. events (FG001 4 mg i.v., N=5) | TEAE Pneumonia: No. events (FG001 4 mg i.v., N=5) | TEAE SOC General disorders and administration site conditions: No. events (FG001 4 mg i.v., N=5) | TEAE SOC Infections and infestations: No. events (FG001 4 mg i.v., N=5) | TEAE SOC Nervous system disorders: No. events (FG001 4 mg i.v., N=5) | TEAE SOC Vascular disorders: No. events (FG001 4 mg i.v., N=5) | FG001 related TEAEs: No. events (FG001 4 mg i.v., n = 5) | SAEs: No. events (FG001 4 mg i.v., n = 5) | TEAE Severe (Grade 3): No. events (FG001 4 mg i.v., n = 5) | TEAE ALT increased: No. events (FG001 16 mg i.v., N=8) | TEAE Blood ALP increased: No. events (FG001 16 mg i.v., N=8) | TEAE GGT increased: No. events (FG001 16 mg i.v., N=8) | TEAE Hyponatraemia: No. events (FG001 16 mg i.v., N=8) | FG001 related TEAEs: No. events (FG001 16 mg i.v., n = 8) | SAEs: No. events (FG001 16 mg i.v., n = 8) | TEAE Severe (Grade 3): No. events (FG001 16 mg i.v., n = 8)
4 (80.0%): TEAE Hypalbuminaemia: No. subjects (%) (FG001 4 mg i.v., N=5) | TEAE SOC Metabolism and nutrition disorders: No. subjects (%) (FG001 4 mg i.v., N=5)
1 (12.5%): TEAE AST increased: No. subjects (%) (FG001 16 mg i.v., N=8) | TEAE Blood creatinine increased: No. subjects (%) (FG001 16 mg i.v., N=8) | TEAE Dysgeusia: No. subjects (%) (FG001 16 mg i.v., N=8) | TEAE Hyperglycaemia: No. subjects (%) (FG001 16 mg i.v., N=8) | TEAE Hypertension: No. subjects (%) (FG001 16 mg i.v., N=8) | TEAE Hypotension: No. subjects (%) (FG001 16 mg i.v., N=8) | TEAE Hypothermia: No. subjects (%) (FG001 16 mg i.v., N=8) | TEAE Pneumonia: No. subjects (%) (FG001 16 mg i.v., N=8) | TEAE SOC General disorders and administration site conditions: No. subjects (%) (FG001 16 mg i.v., N=8)
1 (25.0%): TEAE ALT increased: No. subjects (%) (FG001 36 mg i.v., N=4) | TEAE AST increased: No. subjects (%) (FG001 36 mg i.v., N=4) | TEAE Blood ALP increased: No. subjects (%) (FG001 36 mg i.v., N=4)
2 (40.0%): TEAE SOC Investigations: No. subjects (%) (FG001 4 mg i.v., N=5) | TEAE Mild (Grade 1): No. patients (%) (FG001 4 mg i.v., n = 5) | TEAE Moderate (Grade 2): No. patients (%) (FG001 4 mg i.v., n = 5)
No ECG abnormalities: ECG abnormalities (ECGs at baseline, 1 hr and 44 hrs post-injection)
2: TEAE SOC Investigations: No. events (FG001 4 mg i.v., N=5) | TEAE Moderate (Grade 2): No. events (FG001 4 mg i.v., n = 5) | TEAE Blood bilirubin increased: No. events (FG001 16 mg i.v., N=8) | TEAE SOC Vascular disorders: No. events (FG001 16 mg i.v., N=8)
